Test results: US20230114801A1 (SYSTIMMUNE, published 2023)

Key:
[1] = target: T1, human CD3 (human, UniProt P07766 23-126; P04234 22-105); test: BLI (Octet), binder on AHC sensor, His-tagged human CD3 (series from 200 nM or single 100 nM), 1:1 fit
T1 construct: also called His-tagged human CD3; human CD3 (Acro CDD-H52W1)

[2] = target: T2, CD19 (UniProt P15391 20-291, limits assumed); test: BLI (Octet), binder on AHC sensor; antigen conditions not stated
T2 sequence (looked up): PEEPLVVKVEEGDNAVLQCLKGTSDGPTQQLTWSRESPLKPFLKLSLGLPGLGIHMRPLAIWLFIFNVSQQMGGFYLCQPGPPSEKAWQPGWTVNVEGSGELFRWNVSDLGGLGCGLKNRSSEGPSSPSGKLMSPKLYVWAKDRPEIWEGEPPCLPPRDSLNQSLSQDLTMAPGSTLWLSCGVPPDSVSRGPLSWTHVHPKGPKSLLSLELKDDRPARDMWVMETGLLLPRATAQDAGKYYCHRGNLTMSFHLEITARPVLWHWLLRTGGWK

[3] = target: T3, human 4-1BB (human, UniProt Q07011 24-186, limits assumed); test: as above
T3 construct: Soluble antigen in Octet; construct not described

[4] = target: T4, human PD-L1 (human, UniProt Q9NZQ7 19-238); test: as above
T4 construct: Soluble antigen in Octet; bought; also called human PD-L1 (Acro PD1-H5229)

B1: SI-68P18 (other)
chain 1: DVQMTQSPSTLSATVGQRVTINCQASESISSWLAWYQQKPGQPPKLLIYEASKLASGVPSRFSGSGSGTEFTLTISSLQSDDFATYYCQGYFYFISRTYVNSFGGGTRVEIKGGGGSGGGGSGGGGSGGGGSQQLLESGGRLIKPGATLRLTCKTSGFTISTNAMSWVRQPPGKGLEWIGVITGRDITYYASWAKGRFTISKTSINTVFLQMRSLRAEDTAVYYCARDGGSSAITSNNIWGRGTLVTVSSGGGGSGGGGSQVQLQQSGPGLVKPSETLSITCTVSGFSLTNYGVHWIRQAPGKGLEWLGVIWSGGNTDYNTPFTSRFTITKDNSKNQVYFKLRSVRADDTAIYYCARALTYYDYEFAYWGQGTLVTVSSASTKGPSVFPLAPSSKSTSGGTAALGCLVKDYFPEPVTVSWNSGALTSGVHTFPAVLQSSGLYSLSSVVTVPSSSLGTQTYICNVNHKPSNTKVDKRVEPKSCDKTHTCPPCPAPEAAGGPSVFLFPPKPKDTLMISRTPEVTCVVVDVSHEDPEVKFNWYVDGVEVHNAKTKPREEQYNSTYRVVSVLTVLHQDWLNGKEYKCAVSNKALPAPIEKTISKAKGQPREPQVYTLPPSRDELTKNQVSLSCAVKGFYPSDIAVEWESNGQPENNYKTTPPVLDSDGSFFLVSKLTVDKSRWQQGNVFSCSVMHEALHNHYTQKSLSLSPGGGGGSGGGGSDVVMTQSPSSVSASVGDRVTITCQASQNIRTYLSWYQQKPGKAPKLLIYAAANLASGVPSRFSGSGSGTDFTLTISDLEPGDAATYYCQSTYLGTDYVGGAFGGGTKLTVLGGGGSGGGGSGGGGSGGGGSEVQLVESGGGLVQPGGSLRLSCTASGFTISSYHMQWVRQAPGKGLEYIGTISSGGNVYYASSARGRFTISRPSSKNTVDLQMNSLRAEDTAVYYCARDSGYSDPMWGQGTLVTVSS
chain 2: ENVLTQSPASLSASPGERVTITCSASSSVSYMHWYQQKPGQAPKLWIYDTSKLASGVPSRFSGSGSGNDHTLTISSMEPEDFATYYCFQGSVYPFTFGQGTKVTVLGGGGSGGGGSGGGGSGGGGSQVTLKESGPGLVQPGQTLSLTCAFSGFSLSTSGMGVGWIRQPPGKGLEWLAHIWWDDDKRYNPALKSRLTISKDTSKNQVYLQMNSLDAEDTAVYYCARMELWSYYFDYWGQGTLVTVSSGGGGSGGGGSEIVLTQSPSTLSVSPGERATFSCRASQSIGTNIHWYQQKPGKPPRLLIKYASESISGIPDRFSGSGSGTEFTLTISSVQSEDFAVYYCQQNNNWPTTFGPGTKLTVLRTVAAPSVFIFPPSDEQLKSGTASVVCLLNNFYPREAKVQWKVDNALQSGNSQESVTEQDSKDSTYSLSSTLTLSKADYEKHKVYACEVTHQGLSSPVTKSFNRGECGGDKTHTCPPCPAPEAAGGPSVFLFPPKPKDTLMISRTPEVTCVVVDVSHEDPEVKFNWYVDGVEVHNAKTKPREEQYNSTYRVVSVLTVLHQDWLNGKEYKCAVSNKALPAPIEKTISKAKGQPREPQVYTLPPSRDELTKNQVSLWCLVKGFYPSDIAVEWESNGQPENNYKTTPPVLDSDGSFFLYSKLTVDKSRWQQGNVFSCSVMHEALHNRFTQKSLSLSPGGGGGSGGGGSDIQMTQSPSTLSASVGDRVTITCQASQSISSHLNWYQQKPGKAPKLLIYKASTLASGVPSRFSGSGSGTEFTLTISSLQPDDFATYYCQQGYSWGNVDNVFGGGTKVTVLGGGGSGGGGSGGGGSGGGGSEVQLLESGGGLVQPGGSLSLSCAASGFSFSSGYDMCWVRQAPGKGLEWIACIAAGSAGITYDANWAKGRFTISRDNSKNTLYLQMNSLRAEDTAVYYCARSAFSFDYAMDLWGQGTLVTVSS
notes: penta-miniGNC; D1 αCD3*** (humanized framework 2), D2 αCD19, D3 αEGFR (Fab), D4 α4-1BB, D5 αPD-L1
Which results are given for B1?
Kd [1]: 14.5 nM; Kd [2]: 1.35 nM; Kd [3]: 7.51 nM; Kd [4]: 1 nM
